For nine substances, Kd results are on record in publication PMC5040827.

A value given as a limit tells only on which side of the number the result lay.

Common to all, as to assay: SPR
Assay [1] deals with MD39-10MUT.
For assay [2], the target named is PGT121. Conditions: average of two or three experiments.
For assay [3], the target named is GL_(CDR3rev4). Conditions: average of two or three experiments.

Consider PGT128, for which, in assay [1], the Kd was determined as 3 nM.

As to VRC01, the Kd in assay [1] turned out to be 142 nM.

Regarding “BG505 T332N gp120 5MUT (V134Y; N136P; I138L; D140N; one further mutation not printed)”, the results for the Kd in assay [2] and in assay [3] were 5.7 nM and greater than 34000 nM, respectively.

As for PGT151, the dissociation constant Kd in assay [1] amounted to 35 nM.

In assay [3], “BG505 T332N gp120 7MUT (T135A; T139I; V134Y; N136P; I138L; D140N; one further mutation not printed)” displayed a Kd greater than 36000 nM.

The substance PGDM1400 gave a Kd in assay [1] of 6 nM.

For PGT121, in assay [1], the dissociation constant (Kd) was determined as 0.8 nM.

As for “BG505 T332N gp120 10MUT (T135A; T139I; V134Y; N136P; I138L; D140N; N137F; T320F; Q328M; one further mutation not printed)”, the Kd in assay [3] was greater than 150000 nM.

Substance “BG505 T332N gp120 3MUT (T135A; T139I; one further mutation not printed)” had a Kd in assay [3] greater than 28000 nM.
